Target: T1, human myocilin OLF (hMyoc-OLF), cleaved from its fusion tag (human, UniProt Q99972 244-503, limits assumed)
T1 construct: In Western blots the protein is denatured; also called hOLF; cleaved human myocilin OLF
T1 sequence: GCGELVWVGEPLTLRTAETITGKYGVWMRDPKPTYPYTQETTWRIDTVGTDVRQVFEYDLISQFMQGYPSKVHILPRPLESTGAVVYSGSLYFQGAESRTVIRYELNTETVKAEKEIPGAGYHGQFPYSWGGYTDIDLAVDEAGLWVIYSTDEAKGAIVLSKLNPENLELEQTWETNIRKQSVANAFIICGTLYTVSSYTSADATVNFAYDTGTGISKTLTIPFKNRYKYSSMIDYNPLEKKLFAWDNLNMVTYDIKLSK
Assay: Western blot, denatured hMyoc-OLF, IgG

B1: Monoclonal Antibody OLF2 (antibody, V domains shown)
VH: DVKLVESGGGLVKPGGSLKLSCAASGFTFSSYAMSWVRQTPDKRLEWVATISSGGSYTYYPDSVKGRFTISRDNAKNTLYLQMSSLKSEDTAMYYCARLGGGIFAYWGQGTLVTVSA
VL: DVLMTQTPLSLPVSLGDQASISCRSSQSIVHSNGNTYLEWYLQKPGQSPKLLIYKVSNRFSGVPDRFSGSGSGTDFTLKISRVEAEDLGVYYCFQGSHVPLTFGAGTKLEIKR
notes: also called anti-OLF2
binding result: binds

— patent US12630618 (GEORGIA TECH RESEARCH, dated 2026)
